Reference: patent publication US6403764

T1: human IGFBP-1 (human, UniProt P08833 26-259)
T1 construct: mature; Secreted recombinant protein; also called IGFBP-I
T1 sequence (looked up): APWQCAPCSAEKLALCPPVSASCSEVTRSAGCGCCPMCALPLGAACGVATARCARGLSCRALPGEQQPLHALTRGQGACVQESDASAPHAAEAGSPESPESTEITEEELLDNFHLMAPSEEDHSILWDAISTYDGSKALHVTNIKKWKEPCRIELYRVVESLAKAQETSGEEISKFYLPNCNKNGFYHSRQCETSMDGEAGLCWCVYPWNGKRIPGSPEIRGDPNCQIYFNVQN

B1: IGF-I D12A displayed on phage (ligand)
chain: SPETLCGAELVAALQFVCGDRGFYFNKPTGYGSSSRRAPQTGIVDECCFRSCDLRRLEMYCAPLKPAKSV
notes: On phage; G1S-A70V template; not shown: M13 gene III fragment (residues 249-406), the display carrier, and its junction
B2: IGF-I D20A displayed on phage (ligand)
chain: SPETLCGAELVDALQFVCGARGFYFNKPTGYGSSSRRAPQTGIVDECCFRSCDLRRLEMYCAPLKPAKSV
notes: On phage; G1S-A70V template; not shown: Display carrier: M13 gene III protein fragment (residues 249-406) and the junction to it
B3: IGF-I K68A displayed on phage (ligand, not shown: large carriers; small tags and cut ends)
chain: SPETLCGAELVDALQFVCGDRGFYFNKPTGYGSSSRRAPQTGIVDECCFRSCDLRRLEMYCAPLKPAASV
notes: On phage; G1S-A70V template
B4: IGF-I F25A displayed on phage (ligand)
chain: SPETLCGAELVDALQFVCGDRGFYANKPTGYGSSSRRAPQTGIVDECCFRSCDLRRLEMYCAPLKPAKSV
notes: as for B2
B5: IGF-I K27A displayed on phage (ligand)
chain: SPETLCGAELVDALQFVCGDRGFYFNAPTGYGSSSRRAPQTGIVDECCFRSCDLRRLEMYCAPLKPAKSV
notes: as for B2
B6: IGF-I L5A displayed on phage (ligand, not shown: large carriers; small tags and cut ends)
chain: SPETACGAELVDALQFVCGDRGFYFNKPTGYGSSSRRAPQTGIVDECCFRSCDLRRLEMYCAPLKPAKSV
notes: On phage; G1S-A70V template
B7: IGF-I E3A displayed on phage (ligand, not shown: large carriers; small tags and cut ends)
chain: SPATLCGAELVDALQFVCGDRGFYFNKPTGYGSSSRRAPQTGIVDECCFRSCDLRRLEMYCAPLKPAKSV
notes: On phage; G1S-A70V template
B8: IGF-I E9A displayed on phage (ligand)
chain: SPETLCGAALVDALQFVCGDRGFYFNKPTGYGSSSRRAPQTGIVDECCFRSCDLRRLEMYCAPLKPAKSV
notes: as for B1
B9: IGF-I L10A displayed on phage (ligand)
chain: SPETLCGAEAVDALQFVCGDRGFYFNKPTGYGSSSRRAPQTGIVDECCFRSCDLRRLEMYCAPLKPAKSV
notes: as for B1
B10: IGF-I G22A displayed on phage (ligand)
chain: SPETLCGAELVDALQFVCGDRAFYFNKPTGYGSSSRRAPQTGIVDECCFRSCDLRRLEMYCAPLKPAKSV
notes: as for B2
B11: IGF-I E58A displayed on phage (ligand)
chain: SPETLCGAELVDALQFVCGDRGFYFNKPTGYGSSSRRAPQTGIVDECCFRSCDLRRLAMYCAPLKPAKSV
notes: On phage; G1S-A70V template; not shown: M13 gene III protein fragment (residues 249-406), the phage display carrier, and its junction to IGF-I
B12: IGF-I K65A displayed on phage (ligand)
chain: SPETLCGAELVDALQFVCGDRGFYFNKPTGYGSSSRRAPQTGIVDECCFRSCDLRRLEMYCAPLAPAKSV
notes: as for B11
B13: IGF-I D53A displayed on phage (ligand)
chain: SPETLCGAELVDALQFVCGDRGFYFNKPTGYGSSSRRAPQTGIVDECCFRSCALRRLEMYCAPLKPAKSV
notes: On phage; G1S-A70V template; not shown: Display partner: M13 gene III protein fragment (residues 249-406, mature count) and the junction to it
B14: IGF-I F16A displayed on phage (ligand)
chain: SPETLCGAELVDALQAVCGDRGFYFNKPTGYGSSSRRAPQTGIVDECCFRSCDLRRLEMYCAPLKPAKSV
notes: as for B1
B15: IGF-I G19A displayed on phage (ligand)
chain: SPETLCGAELVDALQFVCADRGFYFNKPTGYGSSSRRAPQTGIVDECCFRSCDLRRLEMYCAPLKPAKSV
notes: as for B1
B16: IGF-I F23A displayed on phage (ligand)
chain: SPETLCGAELVDALQFVCGDRGAYFNKPTGYGSSSRRAPQTGIVDECCFRSCDLRRLEMYCAPLKPAKSV
notes: as for B2

Columns and labels:
[1] = target: T2, recombinant human IGFBP-3 (human, UniProt P17936 28-291); test: competitive phage ELISA
T2 construct: mature; Secreted recombinant protein
T2 sequence (P17936 28-291): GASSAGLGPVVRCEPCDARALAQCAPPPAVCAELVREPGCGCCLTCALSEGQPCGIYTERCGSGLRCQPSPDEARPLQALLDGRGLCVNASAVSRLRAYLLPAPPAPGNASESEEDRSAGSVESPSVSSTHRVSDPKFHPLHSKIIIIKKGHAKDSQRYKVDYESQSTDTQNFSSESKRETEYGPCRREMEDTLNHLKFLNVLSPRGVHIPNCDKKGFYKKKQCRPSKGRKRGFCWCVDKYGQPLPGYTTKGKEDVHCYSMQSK
Protocol: (§1) Phage particles were harvested and resuspended in PBS buffer as described in Lowman, H. B., "Phage Display of Peptide Libraries on Protein Scaffolds," in Cabilly, S. (ed.), *Combinatorial Peptide Library Protocols* (Humana Press Inc.: Totowa, N.J., 1998), pp. 249–264. Then phage concentrations were normalized to yield a maximal ELISA signal of 0.2–0.4 for each mutant (Lowman, in Cabilly, S. (ed.), supra). Threefold serial dilutions of soluble competitor were prepared on non-absorbent microtiter plates (Nunc, F, 96 wells) with binding buffer (0.5% TWEEN™ 20/PBS) containing phage at the previously-determined concentrations. The dilution range of competitor protein extended over six orders of magnitude, starting at 5 µM for IGFBP-1 and 500 nM for IGFBP-3. After blocking, the plates containing immobilized target were washed with 0.05% TWEEN™/PBS buffer and subsequently incubated with 80 µl/well of the premixed phage-competitor solutions for 1 hour at room temperature. […] Numbers in Table I represent mean±standard deviation of individually assessed $IC50$ values.
(§2) At least two different clones of every mutant were tested.

human IGFBP-1 = target: T1, human IGFBP-1; test: competitive phage ELISA
Protocol: as §1, §2

Row | Binder | IC50 [1] [nM] | IC50 (human IGFBP-1) [nM]
1 | B1 | 1.49 | 4.3
2 | B2 | 1.11 | 8.4
3 | B3 | 0.76 | 10.5
4 | B4 | 3.69 | 181
5 | B5 | 0.66 | 12.8
6 | B6 | 1.53 | 55.3
7 | B7 | 1.05 | 278
8 | B8 | 1.32 | 8.6
9 | B9 | 3.55 | 311
10 | B10 | 2.07 | 15.9
11 | B11 | 1.03 | 11.9
12 | B12 | 0.69 | 12.4
13 | B13 | 1.05 | 15.3
14 | B14 | 1.32 | 57.8
15 | B15 | 0.9 | 11
16 | B16 | 2.18 | 10.9
